Laboratory results as given in paper PMC10625600, “A TRIM21-based bioPROTAC highlights the therapeutic benefit of HuR degradation”.

What was measured:
[1] = target: T1, HuR full-length (UniProt Q15717 1-326); assay: fluorescence polarisation; 10 nM probe, 0-2000 nM HuR; FP: 10 mM HEPES pH 7.4, 150 mM NaCl, 3 mM EDTA, 0.05% Tween-20; competition 5 min at room temperature; SPR: Biacore 8K, streptavidin chip, buffer not given in the material; settings: protein: recombinant; tags: Avi-tag, TEV-cleavable His-tag; label: 3' fluorescein (3FluorT; printed after the 3' G, may add a labelled T); single-stranded
[2] = target: T1, HuR full-length; assay: competition fluorescence polarisation; 8 nM HuR, 8 nM Msi1-FITC probe N1 displaced; FP: 10 mM HEPES pH 7.4, 150 mM NaCl, 3 mM EDTA, 0.05% Tween-20; competition 5 min at room temperature; SPR: Biacore 8K, streptavidin chip, buffer not given in the material; settings: protein: recombinant; tags: Avi-tag, TEV-cleavable His-tag; single-stranded

T1 sequence (Q15717 whole entry): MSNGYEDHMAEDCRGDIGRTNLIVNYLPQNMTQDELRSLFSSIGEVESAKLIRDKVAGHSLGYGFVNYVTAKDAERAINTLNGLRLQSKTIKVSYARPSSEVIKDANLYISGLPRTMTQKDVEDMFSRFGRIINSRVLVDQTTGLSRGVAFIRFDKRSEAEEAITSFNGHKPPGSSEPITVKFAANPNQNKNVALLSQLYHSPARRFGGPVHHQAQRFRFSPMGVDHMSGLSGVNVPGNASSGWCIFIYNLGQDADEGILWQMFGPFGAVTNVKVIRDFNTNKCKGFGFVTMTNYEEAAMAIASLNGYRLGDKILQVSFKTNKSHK

| Binder | Kd [1] [nM] | Ki [2] [nM] |
| --- | --- | --- |
| GCUUUUAUUUAUUUUG (ssRNA) [Msi1-FITC RNA probe] | 3.7 | – |
| GCUUUUAUUUAUUUUG (ssRNA) [unlabelled Msi1 RNA] | – | 4 |
